In article PMC6270756:

Molecular target: Nucleoside 2'-deoxyribosyltransferase from Bacillus psychrosaccharolyticus CECT 4074 (Bacillus psychrosaccharolyticus)
Assay: SEC; pure BpNDT on Sepharose 12 10/300 GL column (GE Healthcare); native mass estimated

stoichiometry N: 6
Substance: Nucleoside 2'-deoxyribosyltransferase from Bacillus psychrosaccharolyticus CECT 4074 (enzyme)
